Where a SMILES comes first, the peptide text is derived from it. Where no end group is shown, it is not given here. The star is where a group is joined. pNA = O=[N+]([O-])c1ccc(N*)cc1; Tos = Cc1ccc(S(=O)(=O)*)cc1; Bz = O=C(c1ccccc1)*

The text below walks through data of patent US5955431A, “Mast cell protease peptide inhibitors” (Brigham and Women's Hospital, Inc., priority 1998, dated 1999).

The chains are these.
T1: mMCP-6/heparin complex (Mus musculus, UniProt P21845)
T1 construct: endogenous pro-peptide followed by EK-susceptible peptide (Asp-Asp-Asp-Asp-Lys) (N, cleaved yes); made in house; host or cells: baculovirus; Spodoptera frugiperda 9 for virus, Trichoplusia ni High Five insect cells for expression
T1 sequence (P21845 32-276): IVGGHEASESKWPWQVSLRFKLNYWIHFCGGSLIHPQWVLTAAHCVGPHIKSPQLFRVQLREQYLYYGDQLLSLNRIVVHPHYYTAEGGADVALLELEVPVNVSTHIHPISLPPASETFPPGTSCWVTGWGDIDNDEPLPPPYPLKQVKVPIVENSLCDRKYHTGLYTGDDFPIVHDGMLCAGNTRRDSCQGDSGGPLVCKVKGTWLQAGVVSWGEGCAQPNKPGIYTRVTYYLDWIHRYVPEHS

T2: recombinant mMCP-6-FLAG (Mus musculus, UniProt P21845)
T2 construct: endogenous pro-peptide followed by EK-susceptible peptide (Asp-Asp-Asp-Asp-Lys) (N, cleaved yes); made in house; host or cells: baculovirus; Spodoptera frugiperda 9 for virus, Trichoplusia ni High Five insect cells for expression
T2 sequence (P21845 32-276): T1 sequence (P21845 32-276)

B1: trypsin: serine protease used as comparison in fibroblast adhesion test (protein, UniProt P00760 24-246, looked up)
Serine protease 1: IVGGYTCGANTVPYQVSLNSGYHFCGGSLINSQWVVSAAHCYKSGIQVRLGEDNINVVEGNEQFISASKSIVHPSYNSNTLNNDIMLIKLKSAASLNSRVASISLPTSCASAGTQCLISGWGNTKSSGTSYPDVLKCLKAPILSDSSCKSAYPGQITSNMFCAGYLEGGKDSCQGDSGGPVVCSGKLQGIVSWGSGCAQKNKPGVYTKVCNYVSWIKQTIASN

The first experiment deals with T1, mMCP-6/heparin complex. Briefly: screening of tryptase-specific phage peptide display library with mMCP-6-FLAG in the presence of heparin. It counts as biochemical. As to conditions: four rounds of treatment, equal weight amount of heparin. An excerpt:
(§1) Screening of a Tryptase-Specific, Bacteriophage Peptide Display Library with mMCP-6--A peptide display library that encodes an altered pIII containing at its N terminus the FLAG peptide followed by an 8-residue hypervariable peptide was screened with recombinant mMCP-6-FLAG. Briefly, phage were obtained that express on their surface a pill fusion protein with an extension peptide consisting of the FLAG peptide and a hypervariable octamer peptide containing a Lys/Arg residue at the PI site. After the varied phages in the library were allowed to bind to the anti-FLAG IgG column, the immuno-affinity column was incubated with recombinant mMCP-6-FLAG in the presence or absence of heparin. Those phage recovered in the column's eluate were amplified, and the selection procedure was repeated one lo three times. By determining the nucleotide sequence of the relevant portion of the geneIII construct in each clone, the amino acid sequence of the mMCP-6-susceptible peptide in the random domain of the pIII fusion protein was deduced. To prepare the phage column used in the screening process, 10 ml of the phage-enriched supernatant was added to 2 ml of 20% polyethylene glycol (8 kDa; Sigma) and 2.5 M NaCl and the mixture incubated at 4° C. for 30 min. After a 30 min centrifugation at 10,000 g, the recombinant phage in the pellet were resuspended in 2 ml of 150 mM NaCl, 1 mM […], and 10 mM sodium phosphate, pH 7.0, and applied to a 1-ml affinity column containing the anti-FLAG M1 monoclonal antibody. The column was washed 3 times with 10 ml of the same pH 7.0 buffer to remove unbound phage. EK-activated mMCP-6-FLAG (~50 μg in 200 μl buffer) in the absence or presence of heparin glycosaminoglycan (~50 μg) was added, and the column was sealed and incubated at room temperature for 90 min. […] Log-phase E. coli were infected with the obtained phage to produce phagemid. Bacteria were again grown in 2×YT medium containing 2% glucose and the phagemid in the bacteria were converted to phage with the addition of helper phage. This screening procedure was repeated up to 4 times to select the phage in the library which are most susceptible to degradation by mMCP-6-FLAG.
(§2) E. coli was infected with resulting mMCP-6-FLAG-susceptible phage to generate phagemids. The infected bacteria were seeded onto a plate containing 1.5% agar, 2% Bacto-tryptone, 0.5% Bacto-yeast extract, 2% glucose, 0.09 M NaCl, 0.01 M MgCl2, and 100 μg/ml ampicillin. Individual clones were isolated and grown overnight at 37° C. in 2 ml of 2×YT medium containing 2% glucose with 50 μg/ml ampicillin. One ml of the overnight cultures were centrifuged at ~12,000 g for 5 min. The bacteria in the pellets were lysed and the DNAs were extracted with mini-prep method. The DNAs were digested with NotI and EcoRI restriction enzymes at 37° C. overnight. The digested DNA mini-preps were subjected to electrophoresis on a 1% agarose gel, and those individual phage clones with ~1300-bp inserts were selected for maxi-preparation of their DNAs using nucleobond DNA-binding columns (The Nest Group). The nucleotide sequences which encode the 8-mer, protease-susceptible peptide domains in the fusion proteins were determined.
PKETKQTN: the “Clones (number of clones with this mMCP-6-susceptible peptide)” value (from here on “Clones”) came to 1.
Still for that read-out and setting: in the case of RNRQKTNN it was 4.
On to SLSSRQSP, for which the “Clones” value is listed as 2.
As to SVLPKLRI, the “Clones” value was found to be 1.
As to TPLLKSWL, the “Clones” value is listed as 7.

The same experiment, now with this note: mMCP-6/heparin complex.
Consider RNRQKT [SEQ. ID NO. 1], for which the “susceptibility of the sequence to cleavage” value was “susceptible to cleavage by the mMCP-6/heparin complex”.

Still in this experiment, the particulars now being: two rounds of treatment, equal weight amount of heparin.
For PFTHKSLS, the “Clones” value was 1.
The same measure, in the same setting: next, PKETKQTN: 1.
Take RNRQKTNN: the “Clones” value is recorded as 11.
On the same count and under the same terms, next, SLSSRQSP: 3.
Turning to SVLPKLRI, the “Clones” value came to 1.
On the same count and under the same terms, in the case of TPLLKSWL it was 5.

The subject of the next experiment is Swiss albino mouse skin-derived 3T3 fibroblasts. Nature of the experiment: adhesion and growth of fibroblasts on fibronectin-coated culture dishes. As to conditions: 15 min at 37° C. It counts as cell-based. As to the method: However, these cells will become less adhesive and divide in vitro when they are trypsin treated. To determine if mMCP-6-FLAG could specifically alter the growth and/or adhesion of these cells, the fibroblasts were allowed to attach to replicate fibronectin-coated culture dishes and then were incubated for 15 min at 37° C. with buffer alone or buffer containing either pro-EK-mMCP-6-FLAG, mMCP-6-FLAG, mMCP-7-FLAG, or trypsin. […] SDS-PAGE/immunoblot analysis of the supernatants from the result cultures confirmed that fibronectin was degraded in the mMCP-6-FLAG-treated cultures but not in the pro-EK-mMCP-6-FLAG or mMCP-7-FLAG treated cultures.
On to B1, for which the “adhesion/shape of fibroblasts on fibronectin-coated dishes” value was “rapidly induced the cultured fibroblasts to round up”.

The same experiment, now with this note: 40 min incubation.
For B1, the “fibroblasts remaining attached to the culture dish” value is “very few fibroblasts remained attached”.

The next experiment deals with T2, recombinant mMCP-6-FLAG. Briefly: spectrophotometric cleavage of trypsin-susceptible p-nitroanilide substrates by EK-activated mMCP-6-FLAG. The settings on record: in the absence of heparin. Type of experiment: biochemical. As to the method: Purified pro-EK-mMCP-6-FLAG (~100 μg in 100 μl) was separately mixed with 100 μl of a pH 5.2 buffer consisting of 50 mM sodium acetate and 5 mM calcium chloride. One μl of a solution containing 550 U of calf intestine EK (Biozyme) was added to each, and the mixture was incubated at 37° C. generally for 3 h to allow EK to activate the zymogen in the absence of heparin. The spectrophotometric method of Svendsen and coworkers (Throm. Res. 1972, 1:267-278) was used to determine whether or not mMCP-6-FLAG is enzymatically active. Generally, 1-μl samples of each activation reaction were placed in 1 ml of a pH 7.4 buffer containing 25 mM sodium phosphate, 1 mM EDTA, and 50 μg of tosyl-Gly-Pro-Lys-p-nitroanilide. The change in optical density at 405 nm was then determined after a 3-min incubation at room temperature. The ability of recombinant mMCP-6-FLAG to cleave the trypsin-susceptible substrates tosyl-Gly-Pro-Arg-p-nitroanilide, benzoyl-Ile-Glu-Gly-Arg-p-nitroanilide, benzoyl-Pro-Phe-Arg-p-nitroanilide, and acetyl-Ile-Glu-Ala-Arg-p-nitroanilide were also evaluated.
Take `Cc1ccc(S(=O)(=O)NCC(=O)N2CCC[C@H]2C(=O)N[C@@H](CCCNC(=N)N)C(=O)Nc2ccc([N+](=O)[O-])cc2)cc1` [tosyl-Gly-Pro-Arg-p-nitroanilide] (Tos-Gly-Pro-Arg-pNA): the “cleavage of substrate by EK-activated tryptase (mMCP-6-FLAG)” value is “readily cleaves”.
Turning to `Cc1ccc(S(=O)(=O)NCC(=O)N2CCC[C@H]2C(=O)N[C@@H](CCCCN)C(=O)Nc2ccc([N+](=O)[O-])cc2)cc1` [tosyl-Gly-Pro-Lys-p-nitroanilide] (Tos-Gly-Pro-Lys-pNA), the “cleavage of substrate by EK-activated tryptase (mMCP-6-FLAG)” value is “readily cleaves”.

The same experiment, now with this note: in the presence or absence of heparin.
Take `CC[C@H](C)[C@H](NC(=O)c1ccccc1)C(=O)N[C@@H](CCC(=O)O)C(=O)NCC(=O)N[C@@H](CCCNC(=N)N)C(=O)Nc1ccc([N+](=O)[O-])cc1` [benzoyl-Ile-Glu-Gly-Arg-p-nitroanilide] (Bz-IEGR-pNA): the “cleavage of substrate by mMCP-6-FLAG” value is reported as “does not effectively cleave”.
With `N=C(N)NCCC[C@H](NC(=O)[C@H](Cc1ccccc1)NC(=O)[C@@H]1CCCN1C(=O)c1ccccc1)C(=O)Nc1ccc([N+](=O)[O-])cc1` [benzoyl-Pro-Phe-Arg-p-nitroanilide] (Bz-Pro-Phe-Arg-pNA), the “cleavage of substrate by mMCP-6-FLAG” value is “does not effectively cleave”.

A further experiment deals with T2, recombinant mMCP-6-FLAG. Nature of the experiment: screening of tryptase-specific phage peptide display library with mMCP-6-FLAG in the absence of heparin. Type of experiment: biochemical. As to conditions: library incubated 4 times with mMCP-6-FLAG, 30 clones.
Source text: as §1, §2
For the molecule ECRQRHTR, the “Clones” value came out at 1.
Take EEKKKHKK: the “Clones” value came out at 1.
The same measure, in the same setting: next, FISRRVCR: 1.
GPRLRHPR: the “Clones” value was found to be 1.
For the molecule IRFARSQA, the “Clones” value was found to be 1.
Consider KKIERRNT, for which the “Clones” value was determined as 1.
LCAKRLYR: the “Clones” value was 1.
On to LIALRSTT, for which the “Clones” value came out at 1.
Consider LSTSRASI, for which the “Clones” value is listed as 1.
As to NLRKRKIK, the “Clones” value is 1.
Same read-out and setting: next, NSTVRKRK: 1; PDNQRYIT: 1.
PLILRSRA: the “Clones” value was 1.
The same measure, in the same setting: next, PLPCKLDA: 1; PPPFRRSS: 1; PTPLKHPR: 1.
With PYPPKRTP, the “Clones” value came out at 1.
In the case of QKRGREPR, the “Clones” value amounted to 1.
Same read-out and setting: next, QRTKRKHN: 1; RKPTKKNS: 1; RQNRRPSN: 1.
For SLALRVWR, the “Clones” value was determined as 1.
On the same count and under the same terms, in the case of SLSSRQSP it was 1; in that of SPRPRSTP, 1.
Turning to TGVHKPST, the “Clones” value amounted to 1.
As to VRPARALH, the “Clones” value was 1.
For VRPVKSFR, the “Clones” value is recorded as 2.
